Measured values: patent US20240141072A1 (published 2024)

Legend:
Assay in all cases: Octet BLI; biotinylated huDLL3-IgG1 fusion on streptavidin tips; single 50 nM trispecific, conditioned medium
[1] = biological target: T1, anti-DLL3 trispecific protein with DLL3 binding domain 51E03
T1 construct: trispecific, one chain
Procedure: (§1) Using the conditioned medium with known concentrations of the anti-DLL3 trispecific proteins, the relative binding affinities of the anti-DLL3 trispecific proteins toward human DLL3 protein were measured using a method where biotinylated version of human DLL3 protein were expressed as a human IgG1 fusion protein, and the binding affinity measurement was carried out in an Octet instrument with streptavidin tips.

[2] = biological target: T2, anti-DLL3 trispecific protein with DLL3 binding domain 51B04
T2 construct: trispecific, one chain
Procedure: as §1

[3] = biological target: T3, anti-DLL3 trispecific protein with DLL3 binding domain 41F07
T3 construct: trispecific, one chain
Procedure: as §1

[4] = biological target: T4, anti-DLL3 trispecific protein with DLL3 binding domain 41E02
T4 construct: trispecific, one chain
Procedure: as §1

[5] = biological target: T5, anti-DLL3 trispecific protein with DLL3 binding domain 51F02
T5 construct: trispecific, one chain
Procedure: as §1

[6] = biological target: T6, anti-DLL3 trispecific protein with DLL3 binding domain 42H11
T6 construct: trispecific, one chain
Procedure: as §1

[7] = biological target: T7, anti-DLL3 trispecific protein with DLL3 binding domain 52B01
T7 construct: trispecific, one chain; also called 52B1
Procedure: as §1

[8] = biological target: T8, anti-DLL3 trispecific protein with DLL3 binding domain 42B06
T8 construct: trispecific, one chain
Procedure: as §1

[9] = biological target: T9, anti-DLL3 trispecific protein with DLL3 binding domain 42C10
T9 construct: trispecific, one chain
Procedure: as §1

[10] = biological target: T10, anti-DLL3 trispecific protein with DLL3 binding domain 42B10
T10 construct: trispecific, one chain
Procedure: as §1

[11] = biological target: T11, anti-DLL3 trispecific protein with DLL3 binding domain 53A09
T11 construct: trispecific, one chain
Procedure: as §1

[12] = biological target: T12, anti-DLL3 trispecific protein with DLL3 binding domain 51C02
T12 construct: trispecific, one chain
Procedure: as §1

[13] = biological target: T13, anti-DLL3 trispecific protein with DLL3 binding domain 42A07
T13 construct: trispecific, one chain
Procedure: as §1

[14] = biological target: T14, anti-DLL3 trispecific protein with DLL3 binding domain 51F01
T14 construct: trispecific, one chain
Procedure: as §1

[15] = biological target: T15, anti-DLL3 trispecific protein with DLL3 binding domain 51A03
T15 construct: trispecific, one chain
Procedure: as §1

[16] = biological target: T16, anti-DLL3 trispecific protein with DLL3 binding domain 51G10
T16 construct: trispecific, one chain
Procedure: as §1

[17] = biological target: T17, anti-DLL3 trispecific protein with DLL3 binding domain 41D01
T17 construct: trispecific, one chain
Procedure: as §1

[18] = biological target: T18, anti-DLL3 trispecific protein with DLL3 binding domain 51F03
T18 construct: trispecific, one chain; also called 51F3
Procedure: as §1

[19] = biological target: T19, anti-DLL3 trispecific protein with DLL3 binding domain 42H08
T19 construct: trispecific, one chain
Procedure: as §1

[20] = biological target: T20, anti-DLL3 trispecific protein with DLL3 binding domain 42F01
T20 construct: trispecific, one chain
Procedure: as §1

[21] = biological target: T21, anti-DLL3 trispecific protein with DLL3 binding domain 51A01
T21 construct: trispecific, one chain
Procedure: as §1

[22] = biological target: T22, anti-DLL3 trispecific protein with DLL3 binding domain 41D03
T22 construct: trispecific, one chain
Procedure: as §1

[23] = biological target: T23, anti-DLL3 trispecific protein with DLL3 binding domain 42E01
T23 construct: trispecific, one chain
Procedure: as §1

[24] = biological target: T24, anti-DLL3 trispecific protein with DLL3 binding domain 42D07
T24 construct: trispecific, one chain
Procedure: as §1

[25] = biological target: T25, anti-DLL3 trispecific protein with DLL3 binding domain 42G05
T25 construct: trispecific, one chain
Procedure: as §1

[26] = biological target: T26, anti-DLL3 trispecific protein with DLL3 binding domain 42C01
T26 construct: trispecific, one chain
Procedure: as §1

[27] = biological target: T27, anti-DLL3 trispecific protein with DLL3 binding domain 41E01
T27 construct: trispecific, one chain
Procedure: as §1

[28] = biological target: T28, anti-DLL3 trispecific protein with DLL3 binding domain 51A05
T28 construct: trispecific, one chain; also called 51A5
Procedure: as §1

T17 sequence (chain, as listed by the source): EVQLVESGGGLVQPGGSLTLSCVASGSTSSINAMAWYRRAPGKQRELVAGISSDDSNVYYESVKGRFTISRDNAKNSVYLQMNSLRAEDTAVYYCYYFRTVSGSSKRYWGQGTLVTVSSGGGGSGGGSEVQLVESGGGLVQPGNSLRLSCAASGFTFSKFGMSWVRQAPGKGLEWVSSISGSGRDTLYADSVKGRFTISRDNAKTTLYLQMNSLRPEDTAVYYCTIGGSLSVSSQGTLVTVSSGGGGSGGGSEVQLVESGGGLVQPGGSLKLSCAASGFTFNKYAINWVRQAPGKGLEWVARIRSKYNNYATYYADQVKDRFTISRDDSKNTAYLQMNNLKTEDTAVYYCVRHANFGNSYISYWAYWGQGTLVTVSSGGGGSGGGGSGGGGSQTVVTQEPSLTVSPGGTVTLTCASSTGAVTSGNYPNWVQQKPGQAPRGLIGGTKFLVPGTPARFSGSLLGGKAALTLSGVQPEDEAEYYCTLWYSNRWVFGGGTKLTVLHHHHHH
T6 sequence (chain, as listed by the source): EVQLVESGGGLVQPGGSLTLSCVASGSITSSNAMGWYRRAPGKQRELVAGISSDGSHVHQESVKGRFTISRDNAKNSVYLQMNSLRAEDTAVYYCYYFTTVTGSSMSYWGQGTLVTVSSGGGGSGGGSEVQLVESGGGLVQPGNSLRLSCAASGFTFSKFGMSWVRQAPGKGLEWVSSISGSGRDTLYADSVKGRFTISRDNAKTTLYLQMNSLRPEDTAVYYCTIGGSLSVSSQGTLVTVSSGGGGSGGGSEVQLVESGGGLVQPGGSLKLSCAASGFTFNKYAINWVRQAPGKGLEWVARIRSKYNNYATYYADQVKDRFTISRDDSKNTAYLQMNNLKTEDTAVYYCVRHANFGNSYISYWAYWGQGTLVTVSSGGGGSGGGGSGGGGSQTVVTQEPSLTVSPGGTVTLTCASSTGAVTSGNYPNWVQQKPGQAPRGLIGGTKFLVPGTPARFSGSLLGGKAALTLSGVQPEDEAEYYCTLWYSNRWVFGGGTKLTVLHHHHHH
T2 sequence (chain, as listed by the source): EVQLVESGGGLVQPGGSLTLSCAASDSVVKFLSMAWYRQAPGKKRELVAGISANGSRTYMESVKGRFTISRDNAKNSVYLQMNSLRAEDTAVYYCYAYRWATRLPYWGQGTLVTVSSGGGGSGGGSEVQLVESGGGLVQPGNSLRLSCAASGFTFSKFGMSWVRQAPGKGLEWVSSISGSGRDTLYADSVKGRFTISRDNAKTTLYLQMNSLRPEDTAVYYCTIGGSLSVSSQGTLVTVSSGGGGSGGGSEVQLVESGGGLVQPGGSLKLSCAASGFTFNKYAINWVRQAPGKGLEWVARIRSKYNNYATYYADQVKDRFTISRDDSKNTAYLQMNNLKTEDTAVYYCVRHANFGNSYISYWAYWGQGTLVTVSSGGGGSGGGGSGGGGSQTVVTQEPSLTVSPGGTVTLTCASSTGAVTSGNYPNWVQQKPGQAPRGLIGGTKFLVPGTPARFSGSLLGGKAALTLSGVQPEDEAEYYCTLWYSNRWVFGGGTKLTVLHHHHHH
T26 sequence (chain, as listed by the source): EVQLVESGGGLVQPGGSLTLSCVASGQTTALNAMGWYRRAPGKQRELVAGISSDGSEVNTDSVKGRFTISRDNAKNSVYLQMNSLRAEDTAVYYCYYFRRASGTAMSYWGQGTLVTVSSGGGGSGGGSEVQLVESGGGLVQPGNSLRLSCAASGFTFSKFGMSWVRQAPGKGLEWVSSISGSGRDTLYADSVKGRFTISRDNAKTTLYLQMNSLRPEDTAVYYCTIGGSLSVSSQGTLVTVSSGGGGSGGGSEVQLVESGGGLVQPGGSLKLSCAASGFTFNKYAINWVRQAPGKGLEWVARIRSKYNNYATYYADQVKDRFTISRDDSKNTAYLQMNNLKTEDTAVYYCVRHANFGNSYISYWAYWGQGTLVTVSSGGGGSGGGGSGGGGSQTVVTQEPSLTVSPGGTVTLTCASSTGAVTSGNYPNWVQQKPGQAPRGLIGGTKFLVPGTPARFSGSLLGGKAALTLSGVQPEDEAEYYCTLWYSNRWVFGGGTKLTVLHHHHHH
T21 sequence (chain, as listed by the source): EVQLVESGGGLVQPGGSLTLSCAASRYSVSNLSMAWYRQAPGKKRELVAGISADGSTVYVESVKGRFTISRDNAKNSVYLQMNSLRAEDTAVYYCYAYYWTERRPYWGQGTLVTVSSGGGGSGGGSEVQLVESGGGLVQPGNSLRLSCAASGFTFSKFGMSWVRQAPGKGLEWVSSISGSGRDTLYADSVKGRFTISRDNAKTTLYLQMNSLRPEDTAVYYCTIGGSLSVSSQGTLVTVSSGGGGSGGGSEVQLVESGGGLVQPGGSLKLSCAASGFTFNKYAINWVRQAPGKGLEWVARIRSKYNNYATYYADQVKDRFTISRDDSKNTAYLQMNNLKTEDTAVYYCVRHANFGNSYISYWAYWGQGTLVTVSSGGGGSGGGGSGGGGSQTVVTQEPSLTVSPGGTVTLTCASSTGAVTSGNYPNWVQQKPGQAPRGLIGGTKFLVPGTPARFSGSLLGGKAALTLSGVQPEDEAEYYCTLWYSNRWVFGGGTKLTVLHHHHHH
T18 sequence (chain, as listed by the source): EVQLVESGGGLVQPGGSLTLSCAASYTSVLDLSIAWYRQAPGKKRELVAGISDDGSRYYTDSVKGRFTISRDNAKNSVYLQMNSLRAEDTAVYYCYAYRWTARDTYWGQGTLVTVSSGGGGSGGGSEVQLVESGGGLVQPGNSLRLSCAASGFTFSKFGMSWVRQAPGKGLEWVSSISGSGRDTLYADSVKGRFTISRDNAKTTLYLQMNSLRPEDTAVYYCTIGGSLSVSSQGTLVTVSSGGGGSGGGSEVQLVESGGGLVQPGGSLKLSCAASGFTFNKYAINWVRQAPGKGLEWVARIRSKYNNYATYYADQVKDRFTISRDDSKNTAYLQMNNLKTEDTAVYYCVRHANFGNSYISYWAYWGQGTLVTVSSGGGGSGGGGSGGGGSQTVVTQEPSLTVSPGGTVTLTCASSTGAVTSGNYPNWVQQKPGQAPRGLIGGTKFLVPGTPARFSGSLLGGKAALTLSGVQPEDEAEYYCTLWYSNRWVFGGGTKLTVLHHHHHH
T5 sequence (chain, as listed by the source): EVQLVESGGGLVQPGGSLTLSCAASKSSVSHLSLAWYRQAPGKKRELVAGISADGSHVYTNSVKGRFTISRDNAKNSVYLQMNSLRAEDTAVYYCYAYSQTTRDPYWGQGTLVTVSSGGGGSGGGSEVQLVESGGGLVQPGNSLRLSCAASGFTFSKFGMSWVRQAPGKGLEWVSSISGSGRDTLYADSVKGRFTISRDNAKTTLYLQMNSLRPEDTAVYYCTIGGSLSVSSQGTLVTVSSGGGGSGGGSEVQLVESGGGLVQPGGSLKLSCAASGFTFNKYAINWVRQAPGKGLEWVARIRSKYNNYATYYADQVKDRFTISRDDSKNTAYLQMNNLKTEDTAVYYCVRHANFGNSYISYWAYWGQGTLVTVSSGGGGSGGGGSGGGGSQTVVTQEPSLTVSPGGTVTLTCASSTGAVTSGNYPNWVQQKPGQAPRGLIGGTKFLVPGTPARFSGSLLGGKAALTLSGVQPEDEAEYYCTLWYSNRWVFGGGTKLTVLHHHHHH
T1 sequence (chain, as listed by the source): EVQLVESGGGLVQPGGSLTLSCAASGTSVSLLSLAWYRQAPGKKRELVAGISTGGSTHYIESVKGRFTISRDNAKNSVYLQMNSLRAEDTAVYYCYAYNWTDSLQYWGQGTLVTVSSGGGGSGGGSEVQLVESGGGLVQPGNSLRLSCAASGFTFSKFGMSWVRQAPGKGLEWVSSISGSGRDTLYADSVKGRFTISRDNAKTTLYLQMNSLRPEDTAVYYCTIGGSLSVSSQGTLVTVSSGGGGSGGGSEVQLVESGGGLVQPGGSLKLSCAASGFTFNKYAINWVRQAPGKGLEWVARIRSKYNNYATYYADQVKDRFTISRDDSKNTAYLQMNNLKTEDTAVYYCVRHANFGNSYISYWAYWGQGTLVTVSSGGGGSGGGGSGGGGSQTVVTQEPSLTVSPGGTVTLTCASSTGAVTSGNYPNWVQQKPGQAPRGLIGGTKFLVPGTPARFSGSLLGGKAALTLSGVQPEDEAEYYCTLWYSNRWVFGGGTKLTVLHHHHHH
T19 sequence (chain, as listed by the source): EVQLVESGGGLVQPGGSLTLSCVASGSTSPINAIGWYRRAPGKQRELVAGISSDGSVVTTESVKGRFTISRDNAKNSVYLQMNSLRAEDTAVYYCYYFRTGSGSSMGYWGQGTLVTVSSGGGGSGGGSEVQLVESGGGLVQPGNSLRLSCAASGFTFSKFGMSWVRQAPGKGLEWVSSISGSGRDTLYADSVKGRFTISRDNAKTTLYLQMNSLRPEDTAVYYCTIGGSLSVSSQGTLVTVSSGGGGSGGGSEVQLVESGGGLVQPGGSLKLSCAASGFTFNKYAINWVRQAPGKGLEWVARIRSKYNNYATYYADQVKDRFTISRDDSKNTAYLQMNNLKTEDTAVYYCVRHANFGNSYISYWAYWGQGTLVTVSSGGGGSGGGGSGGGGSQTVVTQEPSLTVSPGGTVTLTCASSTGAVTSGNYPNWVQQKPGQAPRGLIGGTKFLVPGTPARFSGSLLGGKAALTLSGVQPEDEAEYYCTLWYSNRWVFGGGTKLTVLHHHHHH

Kd [1]: 7.2 nM
Kd [2]: 16 nM
Kd [3]: 25 nM
Kd [4]: 3.4 nM
Kd [5]: 2.4 nM
Kd [6]: 3.1 nM
Kd [7]: 0.61 nM
Kd [8]: 3.2 nM
Kd [9]: 3.2 nM
Kd [10]: 1.3 nM
Kd [11]: 0.97 nM
Kd [12]: 7.5 nM
Kd [13]: 3.2 nM
Kd [14]: 16 nM
Kd [15]: 2.2 nM
Kd [16]: 0.6 nM
Kd [17]: 1.4 nM
Kd [18]: 1.4 nM
Kd [19]: 2.1 nM
Kd [20]: 5.5 nM
Kd [21]: 0.92 nM
Kd [22]: 4.8 nM
Kd [23]: 4 nM
Kd [24]: 5.3 nM
Kd [25]: 3.4 nM
Kd [26]: 3.6 nM
Kd [27]: 5.3 nM
Kd [28]: 1.1 nM
B1: biotinylated human DLL3 protein expressed as a human IgG1 fusion protein (Fc fusion, not shown: a dimerising Fc or GST)
chain: AGVFELQIHSFGPGPGPGAPRSPCSARLPCRLFFRVCLKPGLSEEAAESPCALGAALSARGPVYTEQPGAPAPDLPLPDGLLQVPFRDAWPGTFSFIIETWREELGDQIGGPAWSLLARVAGRRRLAAGGPWARDIQRAGAWELRFSYRARCEPPAVGTACTRLCRPRSAPSRCGPGLRPCAPLEDECEAPLVCRAGCSPEHGFCEQPGECRCLEGWTGPLCTVPVSTSSCLSPRGPSSATTGCLVPGPGPCDGNPCANGGSCSETPRSFECTCPRGFYGLRCEVSGVTCADGPCFNGGLCVGGADPDSAYICHCPPGFQGSNCEKRVDRCSLQPCRNGGLCLDLGHALRCRCRAGFAGPRCEHDLDDCAGRACANGGTCVEGGGAHRCSCALGFGGRDCRERADPCAARPCAHGGRCYAHFSGLVCACAPGYMGARCEFPVHPDGASALPAAPPGLRPGDPQRYL
modifications: biotinylated
